Assay [1] addresses BRAG2^(Sec7-PH 390–763) (human).
Assay [2] deals with BRAG2^(Sec7-PH 390–811) (human).
Assay [3] deals with BRAG2^Sec7 (human).

In the case of “Δ13Arf6 (from UniProt P62330 14-175) (domain or fragment)”, the kcat/Km of GDP/GTP exchange in solution (tryptophan fluorescence kinetics, 37°C, 1 µM Arf) is 50000 M⁻¹ s⁻¹ in assay [1], 50000 M⁻¹ s⁻¹ in assay [2] and 10000 M⁻¹ s⁻¹ in assay [3].

Turning to “Δ17Arf1 (from UniProt P84077 18-181) (domain or fragment)”, the results for the kcat/Km of GDP/GTP exchange in solution (tryptophan fluorescence kinetics, 37°C, 1 µM Arf) in assay [1], in assay [2] and in assay [3] were 240000 M⁻¹ s⁻¹, 250000 M⁻¹ s⁻¹ and 20000 M⁻¹ s⁻¹, respectively.
